± gives the standard deviation of the averaged measurements.
Assay: total protein half-life in vivo (active degradation + dilution); higher = more stable protein
[1] = E. coli NCM3722 delta-clpP delta-lon delta-hslV, growth: N-lim chemostat, doubling time 6 h
[2] = E. coli NCM3722 delta-clpP, growth: N-lim chemostat, doubling time 6 h
[3] = E. coli NCM3722 delta-hslV, growth: N-lim chemostat, doubling time 6 h
[4] = E. coli NCM3722 delta-smpB, growth: N-lim chemostat, doubling time 6 h
[5] = wild type E. coli NCM3722, growth: C-lim chemostat, doubling time 3 h
[6] = wild type E. coli NCM3722, growth: C-lim chemostat, doubling time 6 h
[7] = wild type E. coli NCM3722, growth: C-lim chemostat, doubling time 12 h
[8] = wild type E. coli NCM3722, growth: N-lim chemostat, doubling time 6 h
[9] = wild type E. coli NCM3722, growth: N-lim chemostat, doubling time 12 h
[10] = wild type E. coli NCM3722, growth: P-lim chemostat, doubling time 6 h
[11] = wild type E. coli NCM3722, growth: P-lim chemostat, doubling time 12 h
[12] = E. coli NCM3722 delta-lon, growth: N-lim chemostat, doubling time 6 h

Row | Sequence | total protein half-life in vivo [1] | total protein half-life in vivo [2] | total protein half-life in vivo [3] | total protein half-life in vivo [4] | total protein half-life in vivo [5] | total protein half-life in vivo [6] | total protein half-life in vivo [7] | total protein half-life in vivo [8] | total protein half-life in vivo [9] | total protein half-life in vivo [10] | total protein half-life in vivo [11] | total protein half-life in vivo [12]
1 | MKPIFSRGPSLQIRLILAVLVALGIIIADSRLGTFSQIRTYMDTAVSPFYFVSNAPRELLDGVSQTLASRDQLELENRALRQELLLKNSELLMLGQYKQENARLRELLGSPLRQDEQKMVTQVISTVNDPYSDQVVIDKGSVNGVYEGQPVISDKGVVGQVVAVAKLTSRVLLICDATHALPIQVLRNDIRVIAAGNGCTDDLQLEHLPANTDIRVGDVLVTSGLGGRFPEGYPVAVVSSVKLDTQRAYTVIQARPTAGLQRLRYLLLLWGADRNGANPMTPEEVHRVANERLMQMMPQVLPSPDAMGPKLPEPATGIAQPTPQQPATGNAATAPAAPTQPAANRSPQRATPPQSGAQPPARAPGGQ | 5.092 ± 0.007 h | 4.62 ± 0.051 h | 4.54 ± 0.24 h | 4.76 ± 0.74 h | 2.85 ± 0.07 h | 5.57 ± 1.1 h | 10.25 ± 0.089 h | 4.21 ± 0.1 h | 8.66 ± 0.23 h | 4.98 ± 0.25 h | 10.5 ± 0.18 h | 
2 | MKPNIHPEYRTVVFHDTSVDEYFKIGSTIKTDREIELDGVTYPYVTIDVSSKSHPFYTGKLRTVASEGNVARFTQRFGRFVSTKKGA [P0A7N1] |  |  |  | 2.8 h | 2.784 ± 0.022 h | 5.71 ± 0.51 h | 9.33 h |  |  | 6.22 h |  | 
3 | MKPQVYHVDAFTSQPFRGNSAGVVFPADNLSEAQMQLIARELGHSETAFLLHSDDSDVRIRYFTPTVEVPICGHATVAAHYVRAKVLGLGNCTIWQTSLAGKHRVTIEKHNDDYRISLEQGTPGFEPPLEGETRAAIINALHLTEDDILPGLPIQVATTGHSKVMIPLKPEVDIDALSPDLNALTAISKKIGCNGFFPFQIRPGKNETDGRMFSPAIGIVEDPVTGNANGPMGAWLVHHNVLPHDGNVLRVKGHQGRALGRDGMIEVTVTIRDNQPEKVTISGTAVILFHAEWAIEL | > 8 h | 4.73 h |  | 6.56 h |  |  |  |  |  |  |  | 
4 | MKPTSVIIMDTHPIIRMSIEVLLQKNSELQIVLKTDDYRITIDYLRTRPVDLIIMDIDLPGTDGFTFLKRIKQIQSTVKVLFLSSKSECFYAGRAIQAGANGFVSKCNDQNDIFHAVQMILSGYTFFPSETLNYIKSNKCSTNSSTVTVLSNREVTILRYLVSGLSNKEIADKLLLSNKTVSAHKSNIYGKLGLHSIVELIDYAKLYELI [P0AEL8] | 5.67 ± 0.072 h |  |  |  |  |  |  |  |  |  |  | 
5 | MKPYQRQFIEFALSKQVLKFGEFTLKSGRKSPYFFNAGLFNTGRDLALLGRFYAEALVDSGIEFDLLFGPAYKGIPIATTTAVALAEHHDLDLPYCFNRKEAKDHGEGGNLVGSALQGRVMLVDDVITAGTAIRESMEIIQANGATLAGVLISLDRQERGRGEISAIQEVERDYNCKVISIITLKDLIAYLEEKPEMAEHLAAVKAYREEFGV [P0A7E3] | 4.07 ± 0.75 h | 3.84 ± 0.28 h | 3.61 h | 3.83 ± 0.08 h | 2.87 ± 0.3 h | 5.31 ± 0.18 h | 9.3 ± 3.5 h | 3.93 ± 0.33 h | 6.396 ± 0.051 h | 5.62 ± 0.25 h | 10.7 ± 0.39 h | 4.35 ± 0.61 h
6 | MKQALRVAFGFLILWASVLHAEVRIVIDSGVDSGRPIGVVPFQWAGPGAAPEDIGGIVAADLRNSGKFNPLDRARLPQQPGSAQEVQPAAWSALGIDAVVVGQVTPNPDGSYNVAYQLVDTGGAPGTVLAQNSYKVNKQWLRYAGHTASDEVFEKLTGIKGAFRTRIAYVVQTNGGQFPYELRVSDYDGYNQFVVHRSPQPLMSPAWSPDGSKLAYVTFESGRSALVIQTLANGAVRQVASFPRHNGAPAFSPDGSKLAFALSKTGSLNLYVMDLASGQIRQVTDGRSNNTEPTWFPDSQNLAFTSDQAGRPQVYKVNINGGAPQRITWEGSQNQDADVSSDGKFMVMVSSNGGQQHIAKQDLATGGVQVLSSTFLDETPSLAPNGTMVIYSSSQGMGSVLNLVSTDGRFKARLPATDGQVKFPAWSPYL [P0A855] | 5.6 ± 0.21 h | 6.39 ± 0.61 h |  | 6.07 ± 0.73 h | 3.14 ± 0.04 h | 6.59 ± 0.57 h | 11.3 ± 0.41 h | 6.31 ± 0.17 h | 13.8 ± 1.4 h | 5.89 ± 0.3 h | 13.05 ± 0.13 h | 6.28 ± 0.33 h
7 | MKQKVVSIGDINVANDLPFVLFGGMNVLESRDLAMRICEHYVTVTQKLGIPYVFKASFDKANRSSIHSYRGPGLEEGMKIFQELKQTFGVKIITDVHEPSQAQPVADVVDVIQLPAFLARQTDLVEAMAKTGAVINVKKPQFVSPGQMGNIVDKFKEGGNEKVILCDRGANFGYDNLVVDMLGFSIMKKVSGNSPVIFDVTHALQCRDPFGAASGGRRAQVAELARAGMAVGLAGLFIEAHPDPEHAKCDGPSALPLAKLEPFLKQMKAIDDLVKGFEELDTSK [P0A715] | 6.1 ± 0.77 h | 5.88 ± 1.5 h | 5.22 ± 0.14 h | 4.85 ± 0.15 h | 3.15 ± 0.56 h | 6.05 ± 0.51 h | 10.3 ± 1.2 h | 5.01 ± 0.13 h | 9.03 ± 0.37 h | 5.58 ± 0.48 h | 12.9 ± 1.5 h | 6.19 ± 0.93 h
8 | MKQLTILGSTGSIGCSTLDVVRHNPEHFRVVALVAGKNVTRMVEQCLEFSPRYAVMDDEASAKLLKTMLQQQGSRTEVLSGQQAACDMAALEDVDQVMAAIVGAAGLLPTLAAIRAGKTILLANKESLVTCGRLFMDAVKQSKAQLLPVDSEHNAIFQSLPQPIQHNLGYADLEQNGVVSILLTGSGGPFRETPLRDLATMTPDQACRHPNWSMGRKISVDSATMMNKGLEYIEARWLFNASASQMEVLIHPQSVIHSMVRYQDGSVLAQLGEPDMRTPIAHTMAWPNRVNSGVKPLDFCKLSALTFAAPDYDRYPCLKLAMEAFEQGQAATTALNAANEITVAAFLAQQIRFTDIAALNLSVLEKMDMREPQCVDDVLSVDANAREVARKEVMRLAS | 4.22 ± 0.36 h | 3.69 ± 0.044 h | 4.05 ± 0.23 h | 3.84 ± 0.34 h | 2.81 ± 0.21 h | 5.32 ± 0.24 h | 9.19 ± 0.66 h | 3.64 ± 0.13 h | 5.81 ± 0.34 h | 5.88 ± 0.068 h | 9.74 ± 0.61 h | 3.93 ± 0.36 h

Reference: the supplement of paper PMC11246515
